Assay: soluble on expression in E. coli; label from the status in PepcDB or PDB records
In the case of “MLIFGFIGLFFLNIFSLHAQGIVTNKDAQEEFKWALNSYNNGIYDDALLSFKKILSFDPNNLDYHFWTGNVYYRLGYVEEALMEWRNLKDQGYKVPYLRHLISTIEQRRGIFSNYELNFKKLVKVASLDNSIYKRPHGYQITSLRADKYGGYYAANFVGNEILYFDVNNNVNALVKDGFSYLKSPYDVIEANNLLYVTLYSSDEIGVYDKVLGVKRKSIGNKGTKDGELLAPQYMAIDKRNYIYVSEWGNKRVSKFGLEGDFILHFGSRTSGYKGLLGPTGVTYLNENIYVADSLRNTIEVFDTSGNHLYSVFTSIEGIEGLSSDFVGNNVIVSSKDGVYKYSIAKKTITKILKADKMNSKISSSILDANNQMIVSDFNNAKVSVYKSDASLYDSLNVDVRRIIRLGGPKIYVELNVSSKSGLPVVGLKSENFSISNENYYIVNPKVAYNVNASKDINIAVVFDKSSYMKKYDTDQIVGLNALMELSKNKNFSFINATSVPIIDNIESLTNSIRNTSSLGPYSTDAVKTDVSLKLAGSGLMSKSSRRAVVYFSGGILNRKAFEKYSLDTIVSYYKNNDIRFYLILFGNDPINSKLQYLVNETGGAVIPFSSYEGVSKVYDLILEQKTGTYLLEYYYPGPQEPNKYFNLSVEANINQQTGRGEFAYFINLEHHHHHH”, the “soluble on expression in E. coli” value is reported as “not soluble”. With “MDQPISVTLSSTTDPLWRSCHEYDNEMVITVNGRRIFPTLEYTVTGLDTFKLYSMCMHLDLVDDKKLRFTGGQWAESVSTEKKDPPRKVWHHNGSQTGKDWMLRNVSFDQIRITNRKSKEDGNASYVHLLTQHRYIPVLTIYEGDQLVHTARIPHSQFISVTAYHKGELNTLKTNNNPYSTGSRKDRRRERQSPVYSEGTSSEKSISPPPAKKIKDMAPALPDYSVISKPNLLQSLIFPMIAEQPSTSQSPPAPPVFPFNPDLQMQMLQPFMLPQFGFPCGFPSINPFMNPFLTPFTSMFPTPTVSPDGEGVKLEPEAFVEV” the “soluble on expression in E. coli” value was “not soluble”. With “SLKIDTHAHIFLKKLNTVANARYKPDYDASFKDYKANLDHYDFNKGVLVQPSFLGIDNEFLLQSIEKDENIKAIVVVDENIKFDELKKLKERKACGVRLNLIGKELPNFKSMVWTQFFENLSKLKMQIEIQRDLDNNLVDIVENLIPYGCNIVIDHLARANANLTNLEDLICLKNSRIFFKISGFYRAKIDYANNEQAVKFAKKIYEILKEHFPLSNFVFGSDWPHTNFEANINFSSALVAFNEVVVSKKEQEQILGDNACALFGF” the “soluble on expression in E. coli” value was “soluble”. In the case of “MGSDKIHHHHHHMNKKFLLTGASGFVGKHLYSINPSQFRCVVREDGERFPDAYKVNGINSKTDWTDSFLDIDCIIHLAGLAHSNNNRNDEYRETNFLGTLCLAQQASKSGVKRFVFVSSIGVNGNATLEKPFSIFDEPKPLNSYTNSKYDAEIGLKKIAAETGLEVVIVRPTLVYGPNAPGNFGLLTKLVKKLPVLPFGLANNKRDFIAVQNLADLLITCATHPNAAGHMFLASDMETVSIKQFTNAIADGLGKKVFQFPIPVSLMRLTGKLMRKSAMVEQLLGNLQVDSSNIKEVLDWTPPLTMKQAMTTLCDSGKSS”, the “soluble on expression in E. coli” value is reported as “not soluble”. In the case of “MSLAEPVLGDDGLYQLDWYLQSFLDLKEDLEGATAKGKRFAILWGLKGCPYCKKLHDVHMRDPAIESYIRDNFEIVHLNHIGAREVTDFDGSKLSEKAFAQAYGIRFTPSLQFFPESADGLAAKKPQDREVARMPGLLEPPEFLAMFKYVREKGYQSMPFTDWLKREGHHHHHH”, the “soluble on expression in E. coli” value is reported as “soluble”. In the case of “MGSDKIHHHHHHMIHTLYRYCIAFTVVFLSACSVTPRQDASESQAGASAAATLASWNDTRTKRSIVDFVTLVTTPESRDFIPSADRIAVFDNDGTLWPEQPVRVQLVFALQRVKTVAGRHPEWKRQEPFRSILKGNLRSVAASGDAGSLRVLAAAHVGMTSEQFAALAHEWFDSASDPRFNRLYADLAYQPMLELLAYLRANGFKTYLVTGGDVEFVREVAQRMYGIPPEQVIGSTVRYRYSQTNDAISLTRLAQVDTLVDGAAKPLAIDRVIGRRPVIAFGNADGDAPMLEWTSAGDGPRLAALVHHTDAEREYQYDHASQSGKLDKGLDEAAVKGWLIVDMKDDWKTVFKPANTTAPGATGATGATVK”, the “soluble on expression in E. coli” value is reported as “not soluble”. For “MSLKGDDIEEGKELVATHIAEGLYHDGKFVGYVKRAHDVDVNLNAHTMFENLVVKASGVLSAIQMLRHSKIDPAEIDYVIECSEEACGDINQRGGGNFAKSIAEIAGLQNATGSDTRGFCAAPTHALIQAAALVKAGIHKNVMVVAGGASAKLGMNAKDHVKKGLPVLEDVVGGFAVLVSENDGVNPVIRTDLTGKHTVGTGSSPQAVMTALITSGLDRANLKITDVDVYSVEMQNPDITKPAGAGDVPEANYKMIGALAVKRGDLEKKELKDFVSNKGLPGWAPTQGHIPSGAPYIGFLIDDLTTGNRNRAMIVGKGSLFLGRMTNLFDGVSFIAERNTGVTEETSGISKDEIKKIIAESMKKLALDMLEEGHHHHHH”, the “soluble on expression in E. coli” value was “not soluble”. In the case of “MGRIKRGLDYFPMSTSFMHDRMVRRIMRREGDSAFATLVETLSYIYAGKGYYISVGDEFYEELVDSLYSTELDDVKRIISLSVEYGLFDAGLFRQYNILTSADIQRQYLFITKRRSSALIEPDYCLLESEEITSYRSSQSGKSSTDDSLDSECAEALNGDADHKTACTVTSSFDSVTMEDEIATSGTQNKRKQIKINQNKVNHLPNPPQGGDEGGKYLKSRTAVTQEDIDCLQPPCDGVQRNFQGLTDNLRLYKVPPSEQYAIILKSNFGAIGNPVWKGFNTIRGSNGKIRLPGHYLLSIIN”, the “soluble on expression in E. coli” value is reported as “not soluble”. With “MGSDKIHHHHHHMSSNALYTDLSGYYDLMCSDINYQQQSASIHRLHQFLGNNGKQHLDLACGTGPHVRHFIDLGYQCSGLDINQPMLDMAMRRCPEAQFNLQDMTAFYLEERVDLITCFLYSIHYSACIERLKSCIASVHSALNDGGLFCFNTVDKHRIDNTASVKHFAEFDGSHFAFESGWHYSGQGEKQSLKLSIAKSRLPFTEVSASPLPVSDMKGLGSLEAGLHAAGLQEVGLQELHSIEQWQDQHAMVATSFTELQELLAPYFEVHVFEHDYERIVPWDLASGNALFVCVKI” the “soluble on expression in E. coli” value was “not soluble”. With “MKFTSATGSGSGQGSSSGTNTSAGNPDGLQADKVDQNGQVKTSVQEATSGDNLTNYTNLPPANLTPTADPNALSFTNKNNAQRAQLFLRGLLGSIPVLVNKSGQDDLEHHHHHH” the “soluble on expression in E. coli” value was “not soluble”. In the case of “AHQTKVDTLIVTNSKAWKPFSYVSQDGEPKGILIDFWREYAERNHVRVEFLLLDWEESLRAVKEGRADVHAGLIYSEARDKYLDFGAVIMPIQTKLYVNKDMLAVDIKGVLTGEVELPIGLVKGSYEAEFVRANYPRASLVEYLNNDAMIRAAVEKNILYFVADLQVAN”, the “soluble on expression in E. coli” value is reported as “not soluble”. For “GSRAQSSPAAPASLSAPEPASQARVLSSSETPARTLPFTTGLIYDSVMLKHQCSCGDNSRHPEHAGRIQSIWSRLQERGLRSQCECLRGRKASLEELQSVHSERHVLLYGTNPLSRLKLDNGKLAGLLAQRMFVMLPCGGVGVDTDTIWNELHSSNAARWAAGSVTDLAFKVASRELKNGFAVVRPPGHHADHSTAMGFCFFNSVAIACRQLQQQSKASKILIVDWDVHHGNGTQQTFYQDPSVLYISLHRHDDGNFFPGSGAVDEVGAGSGEGFNVNVAWAGGLDPPMGDPEYLAAFRIVVMPIAREFSPDLVLVSAGFDAAEGHPAPLGGYHVSAKCFGYMTQQLMNLAGGAVVLALEGGHDLTAICDASEACVAALLGNRVDPLSEEGWKQKPNLNAIRSLEAVIRVHSKYWGCMQRLAS”, the “soluble on expression in E. coli” value was “soluble”. For “GQQINIHKPPIPERVQTIQGQVLFTKDDIVHGQQVWQSIGGQQIGSVWGHGSYVAPDWTADWLHREATIMLDSWAQEQGHEHYSDLPAEQQAALKERLKKTMRSNTYDAQTGTITLDDLRVDAMRSNAQYYSELFRDGHEHYAIPQNALNDKAAADDMTAFFWWTSWSASTNAPDSDISYTQNWPHEPLIDNAPPTGNI”, the “soluble on expression in E. coli” value was “not soluble”. With “MSLKLTVVGLGYIGLPTSIMFAKHGVDVLGVDINQQTIDKLQSGQISIEEPGLQEVYEEVLSSGKLKVSTTPEASDVFIIAVPTPNNDDQYRSCDISLVMRALDSILPFLEKGNTIIVESTIAPKTMDDFVKPVIENLGFTIGEDICLVHCPERVLPGKILEELVHNNRIIGGVTKACIEAGKYVYRTFVQGEMIETDARTAEMSKLMENTYRDVNIALANELTKICNNLNINVLDVIEMANKHPRVNIHQPGPGVGGHCLAVDPYFIIAKDPENAKLIQTGREINNSMPAYVVDTTKQIIKALSGNKVTVFGLTYKGDVDDIRESPAFDIYELLNQEPDIEVCAYDPHVELDFVEHDMSHAVKDASLVLILSDHSEFKNLSDSHFDKMKHKVIFDTKNVVKSSFEDVSYYNYGNIFNFIDKEGHHHHHH” the “soluble on expression in E. coli” value was “soluble”. For “SNAMATNLIGLDTTQSQKLANALNNLLANYQVFYMNTRGYHWNIQGKEFFELHAKFEEIYTDLQLKIDELAERILTLSARPMHSFSGYLKAAQIKEHTDSIDGRSSMQGLVDGFSILLHQQRDILELAGETGDEGTSALMSDYIREQEKLVWMLNAWLK”, the “soluble on expression in E. coli” value was “soluble”. With “MSLGQRTSRTPDQLENVGVDQKLGATIPKDLSFQNEQGEPVRLSQYFDGSTPVMLTLNYHRCPQLCRIQLQKFTKSLSGMSWTAGDKFKVLTVDISPYEGPKMARKAQERYATFLDRPEETVDGWHFLTGNQAAIETLTDSVGFRYQPLPEKEKQFAHPTTIIFLSGDGTITRYFTTLDPAPGDLRTALVEASDGEGHHHHHH” the “soluble on expression in E. coli” value was “soluble”. In the case of “MNRARKTSSCGCFRSAFCLLKPSTSSASEEHGDSDKKLLSVQLITPRDEEEQTSSRSIKIPPLDLNGLDCKKNAVAARRAGRRRTSEGGGVRGKGHFAEVVLDGLQRPVSLLRNQKEKSNSDDNCQEKEPTSPSSSRKKSYDNAPALESLEKLRYILHQLNSGQLPLEDLKRNIEYAALVLETAYMDETRRICDEDDDLAEVTPETVPDEVREWLAATFTRQNAGKKRDKPKFKSVANAIRTGIFFEKLFRKQQVVQCPIPPEIAELMKEVCTWSFSPFQLNEVSEGHALKYVGFELFNRYGFMDRFKVPLTALENYLSALEVGYSKHNNPYHNVVHAADVTQSSHFMLSQTGLANSLGDLELLAVLFGALIHDYEHTGHTNNFHIQSQSQFAMLYNDRSVLENHHVSSCFRLMKEDDKNILTHLTRDEYKELRNMVIEIVLATDMSTHFMQIKTMKSMLSLPEGIDKNKALCLIVHACDISHPAKPWNLHERWTEGVLEEFFRQGDLEASMGLPYSPLCDRHTVHVADSQIGFIDFIVEPTMVVCGELLVKMVEPLVSLPPTDSLFPPSVDGGDDKSPSNALSPLPDLRNSSTSPSSIRRIPLNYAGKLDIPTPWMKFLHENKAHWKERAAKEEEERKIKEAAEAEAAAKQVEENKENGVTTN”, the “soluble on expression in E. coli” value is reported as “not soluble”. In the case of “MLKFRASFLSLALMLAVPFAPQAVAKTAATTAASQPEIASGSAMIVDLNTNKVIYSNHPDLVRPIASITKLMTAMVVLDARLPLDEILKVDISQTPEMKGVYSRVRLNSEISRKNMLLLALMSSENRAAASLAHYYPGGYNAFIKAMNAKAKALGMTHTRFVEPTGLSIHNVSTARDLTKLLIATKQYPLIGQLSTTREDMATFSHPAYTLPFRNTNHLVYRDNWNIQLTKTGFTNAAGHCLVMRTVINNKPVALVVMDAFGKYTHFADASRLRTWIETGKVMPVPAAALSYKKQKAAQMAAASASAGAQTAQND”, the “soluble on expression in E. coli” value is reported as “not soluble”. With “MTDYLADVQKYDSSADEAVVNKIVRHLGIALRNKDSALVSASDPKELERVREKWCEKKLGVGGSDADAAIAATAKAMADDRSKSRVTFYYLVAKNLGKLQTL” the “soluble on expression in E. coli” value was “not soluble”. For “MGSDKIHHHHHHMFSQNDNINILVIRFKRIGDAILSLPLCHSLKLTFPNSKVDFVLYEDVAPLFEGHPYIDNVITITKEEQKNPFKYIKKVYNVTRKKYDIIIDIMSTPKSELFCMFSRKTPFRIGRYKKKRGFFYNYKMKEKESLNKVDKFLNQLLPPFEEVGFDVKKDYDFKFFAEKKEKEKYKQKMLETGVDFSKPVIAFSIYSRVAHKIYPIDKMKEVVKFLINRYSAQIIFFYSADQKDEIQKIHKEIGDFKNIFSSIETPTIKNLVPFLENCDYYIGNEGGARHLAQGVGIPTLAIFSPSADLKEWLPFPSEKNMGISPIDMLEKNALSLDDFNKMNPEEQFSLIDIETIKEMSDELIEKNKRK”, the “soluble on expression in E. coli” value was “not soluble”.

From the DeepSol protein solubility set
